# B1: purified recombinant mouse Nampt (Mus musculus) (protein)
# chain: MNAAAEAEFNILLATDSYKVTHYKQYPPNTSKVYSYFECREKKTENSKVRKVKYEETVFYGLQYILNKYLKGKVVTKEKIQEAKEVYREHFQDDVFNERGWNYILEKYDGHLPIEVKAVPEGSVIPRGNVLFTVENTDPECYWLTNWIETILVQSWYPITVATNSREQKKILAKYLLETSGNLDGLEYKLHDFGYRGVSSQETAGIGASAHLVNFKGTDTVAGIALIKKYYGTKDPVPGYSVPAAEHSTITAWGKDHEKDAFEHIVTQFSSVPVSVVSDSYDIYNACEKIWGEDLRHLIVSRSTEAPLIIRPDSGNPLDTVLKVLDILGKKFPVTENSKGYKLLPPYLRVIQGDGVDINTLQEIVEGMKQKKWSIENVSFGSGGALLQKLTRDLLNCSFKCSYVVTNGLGVNVFKDPVADPNKRSKKGRLSLHRTPAGNFVTLEEGKGDLEEYGHDLLHTVFKNGKVTKSYSFDEVRKNAQLNIEQDVAPH
# Substrate: NC(=O)c1cccnc1
# Experiment: purified protein, by the assay type
# Details: other: substrate of Nampt, 37° C., pH 7.5
protein,measurement,value
B1,Km,0.92 µM
